Biological target: Fluorescein-labeled murine N-WASP-VCA (a.a. 399-501) (murine) (UniProt Q91YD9)
Assay: fluorescence polarisation

ACD-cross-linked actin oligomers (from UniProt P68135 1-377)
Kd: 8 nM
